# Measured values published in article PMC12092003.
# What was measured:
# [1] = target: Ctla-4 with EGFP-tag (labeled protein of the MST assay) (zebrafish); assay: MST; Monolith NT.115; EGFP-tagged Cd28 or Ctla-4 as labeled protein, unlabeled Cd80/86 titrated (initial 3.2 µM, 16 doubling dilutions), 10 min at room temperature, measured at 25 °C, 40% LED, medium MST power
# [2] = target: Cd28 with EGFP-tag (labeled protein of the MST assay) (zebrafish); assay: as above
# [3] = target: HA-Ctla-4 (zebrafish cytotoxic T lymphocyte antigen-4, from pCDNA3.1-HA-Ctla-4) (zebrafish); assay: Western blot under non-reducing and reducing conditions; lysate of HEK293T cells transfected with pCDNA3.1-HA-Ctla-4 for 48 hr, mixed with loading buffer without or with β-ME; empty plasmid as control
Substance,Kd [1] [nM],Kd [2] [nM],stoichiometry N [3]
recombinant soluble Cd80/86 (Cd80/86 extracellular domain) (domain or fragment),500,2640,
"HA-Ctla-4 (zebrafish cytotoxic T lymphocyte antigen-4, from pCDNA3.1-HA-Ctla-4) (receptor)",,,2
